Target: Trypanosoma brucei ADAT3 (Trypanosoma brucei)
Test: cryo-EM structure; TbADAT2/3 heterodimer co-expressed in Hi5 cells, purified via the His tag on TbADAT3 (1 M KCl wash), tag cleaved, SEC; mixed with in vitro transcribed TbtRNA-Thr(CGU) in 20 mM Hepes pH 7.5, 50 mM NaCl, 2 mM MgCl2, 0.5 mM TCEP, SEC, vitrified

Trypanosoma brucei ADAT2 (A87G/C117S) (enzyme)
stoichiometry N: 1

— article PMC9643335
